Experimental data from PMC3518268 (Science (New York, N.Y.), 2009).

T1: pseudokinase domain of STRADα (residues 59-431) (human, UniProt Q7RTN6 59-431)
T1 sequence (looked up): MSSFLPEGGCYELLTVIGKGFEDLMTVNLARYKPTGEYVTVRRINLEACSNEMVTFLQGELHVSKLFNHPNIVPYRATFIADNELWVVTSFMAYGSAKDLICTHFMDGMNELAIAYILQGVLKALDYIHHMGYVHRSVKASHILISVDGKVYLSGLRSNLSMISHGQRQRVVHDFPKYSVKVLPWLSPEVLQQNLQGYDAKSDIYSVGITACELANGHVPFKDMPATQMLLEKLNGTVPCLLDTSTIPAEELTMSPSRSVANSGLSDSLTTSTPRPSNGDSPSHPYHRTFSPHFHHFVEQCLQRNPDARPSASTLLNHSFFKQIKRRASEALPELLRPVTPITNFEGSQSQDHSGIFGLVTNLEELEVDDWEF

B1: full length MO25α (natural protein, human, UniProt Q9Y376 1-341, looked up)
chain: MPFPFGKSHKSPADIVKNLKESMAVLEKQDISDKKAEKATEEVSKNLVAMKEILYGTNEKEPQTEAVAQLAQELYNSGLLSTLVADLQLIDFEGKKDVAQIFNNILRRQIGTRTPTVEYICTQQNILFMLLKGYESPEIALNCGIMLRECIRHEPLAKIILWSEQFYDFFRYVEMSTFDIASDAFATFKDLLTRHKLLSAEFLEQHYDRFFSEYEKLLHSENYVTKRQSLKLLGELLLDRHNFTIMTKYISKPENLKLMMNLLRDKSRNIQFEAFHVFKVFVANPNKTQPILDILLKNQAKLIEFLSKFQNDRTEDEQFNDEKTYLVKQIRDLKRPAQQEA
B2: LKB1 kinase domain (residues 43-347), catalytically inactive mutant Asp194Ala (domain or fragment, human, UniProt Q15831 43-347, looked up)
chain: AKLIGKYLMGDLLGEGSYGKVKEVLDSETLCRRAVKILKKKKLRRIPNGEANVKKEIQLLRRLRHKNVIQLVDVLYNEEKQKMYMVMEYCVCGMQEMLDSVPEKRFPVCQAHGYFCQLIDGLEYLHSQGIVHKDIKPGNLLLTTGGTLKISALGVAEALHPFAADDTCRTSQGSPAFQPPEIANGLDTFSGFKVDIWSAGVTLYNITTGLYPFEGDNIYKLFENIGKGSYAIPGDCGPPLSDLLKGMLEYEPAKRFSIRQIRQHSWFRKKHPPAEAPVPIPPSPDTKDRWRSMTVVPYLEDLHGA

Experiments:
[1] = biological target: T1, pseudokinase domain of STRADα (residues …); experiment: crystal structure
full length MO25α = biological target: B1; experiment: crystal structure

Binder | binding result [1] | binding result (full length MO25α)
B1 | binds | 
B2 | binds | binds
